The values that follow come from patent US20210017240A1 (ACCESS BUSINESS GROUP INTERNATIONAL, published 2021).

The target in test [1] is angiotensin converting enzyme (ACE). Nature of the test: cell-based or functional assay.
Another test addresses T1, human recombinant renin (human, UniProt P00797 67-406, limits assumed).
T1 sequence (looked up): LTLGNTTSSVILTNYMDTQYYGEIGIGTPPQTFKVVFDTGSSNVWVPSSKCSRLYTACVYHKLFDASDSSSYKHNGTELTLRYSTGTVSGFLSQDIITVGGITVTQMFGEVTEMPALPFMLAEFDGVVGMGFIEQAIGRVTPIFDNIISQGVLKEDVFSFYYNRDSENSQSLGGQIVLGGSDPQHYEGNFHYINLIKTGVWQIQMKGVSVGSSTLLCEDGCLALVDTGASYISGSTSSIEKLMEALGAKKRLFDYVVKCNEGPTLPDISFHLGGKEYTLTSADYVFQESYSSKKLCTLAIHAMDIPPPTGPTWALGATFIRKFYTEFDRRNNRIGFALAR
Nature of the test: cell-based or functional assay.

As for YFVP [isolated peptide 1, YFVP (Tyr-Phe-Val-Pro)], the “IC50 of in vitro ACE activity inhibition (FAPGG substrate, absorbance at 345 nM)” value (“IC50 of in vitro ACE activity inhibition” below) in test [1] came out at 0.25 mg/mL. The “% Inhibition of renin activity at 1 mg/mL peptide (fluorometric Renin Inhibitor Screening Assay Kit)” value (shortened to “% Inhibition of renin activity”) in the test with human recombinant renin was -40.5%.

With SGRDP [isolated peptide 2, SGRDP (Ser-Gly-Arg-Asp-Pro)], in test [1], the “IC50 of in vitro ACE activity inhibition” value worked out at 0.51 mg/mL. For the same molecule, the “% Inhibition of renin activity” value with human recombinant renin is -54.5%.

For the molecule TGSYTEGWS [isolated peptide 4, TGSYTEGWS (Thr-Gly-Ser-Tyr-Thr-Glu-Gly-Trp-Ser)], in test [1], the “IC50 of in vitro ACE activity inhibition” value amounted to 0.55 mg/mL. In addition, the “% Inhibition of renin activity” value with human recombinant renin is 107%.

MVWGP [isolated peptide 3, MVWGP (Met-Val-Trp-Gly-Pro)]: in test [1], the “IC50 of in vitro ACE activity inhibition” value was 0.021 mg/mL. Further, in the test with human recombinant renin, the “% Inhibition of renin activity” value is -46.4%.
